This series concerns the molecule itself. The experiment in a line: mass photometry (Refeyn) after dilution in PBS and 60 min at 37 C; self-association of the chain into dimer and tetramer. As to the method:
For this example, a Refeyn Mass photometer (Refeyn Ltd, Oxford UK) was used according to the manufacturer's instructions, with the following settings:
The GD2-SADA construct was diluted in PBS, and incubated for 60 minutes at 37° C. before measuring the size distribution. Following dilutions were made: 150 nM, 100 nM, 50 nM, 10 nM, 5 nM, 1 nM and 100 PM and subjected to Mass photometry using the Refeyn Mass photometer.

B1: GD2-SADA complex (other)
chain: EIVMTQTPATLSVSAGERVTITCKASQSVSNDVTWYQQKPGQAPRLLIYSASNRYSGVPARFSGSGYGTEFTFTISSVQSEDFAVYFCQQDYSSFGCGTKLEIKRGGGGSGGGGSGGGGSGGGGSGGGGSGGGGSQVQLVESGPGVVQPGRSLRISCAVSGFSVTNYGVHWVRQPPGKCLEWLGVIWAGGITNYNSAFMSRLTISKDNSKNTVYLQMNSLRAEDTAMYYCASRGGHYGYALDYWGQGTLVTVSSGGGGSGGGGSGGGGSGGGGSHVQLVESGGGLVQPGGSLRLSCAASGFSLTDYGVHWVRQAPGKGLEWLGVIWSGGGTAYNTALISRFTISRDNSKNTLYLQMNSLRAEDTAVYYCARRGSYPYNYFDAWGCGTLVTVSSGGGGSGGGGSGGGGSGGGGSGGGGSGGGGSQAVVTQEPSLTVSPGGTVTLTCGSSTGAVTASNYANWVQQKPGQCPRGLIGGHNNRPPGVPARFSGSLLGGKAALTLLGAQPEDEAEYYCALWYSDHWVIGGGTKLTVLGTPLGDTTHTSGKPLDGEYFTLQIRGRERFEMFRELNEALELKDAQAGKEPGGSGGA
notes: A single polypeptide: anti-GD2 scFv, humanized C825 (anti-DOTA) scFv and the p53 tetramerization (SADA) domain; It is written here as one chain that associates with itself; In the mass photometry assay it was a concentration-dependent mixture of monomer, dimer, tetramer and higher multimers; also called GD2-SADA construct; GD2-SADA conjugate
In the case of B1, the binding result was “binds”.

(Values after US20250041410A1 (Y MABS THERAPEUTICS, published 2025).)
